B1: 2E5 (antibody, human IgG4, V domains shown)
VH: QVQLVQSGAEVKKPGSSVKVSCKASGFTFTTYYISWVRQAPGQGLEYLGYINMGSGGTNYNEKFKGRVTITADKSTSTAYMELSSLRSEDTAVYYCAIIGYFDYWGQGTMVTVSS
VL: DVVMTQSPLSLPVTLGQPASISCRSSQSLLDSDGGTYLYWFQQRPGQSPRRLIYLVSTLGSGVPDRFSGSGSGTDFTLKISRVEAEDVGVYYCMQLTHWPYTFGQGTKLEIK
B2: 2C2 (antibody, human IgG4, V domains shown)
VH: B1 VH
VL: B1 VL with G35A
B3: 2G4 (antibody, human IgG4, V domains shown)
VH: B1 VH
VL: B1 VL with G35S
B4: 1H6 (antibody, human IgG4, V domains shown)
VH: B1 VH with I99L
VL: B1 VL

Numbering of substitutions follows the chain as printed.

Chain of cynomolgus PD-1 (Sino Biological), coated on plates (B0LAJ3 entry or part of it limits assumed): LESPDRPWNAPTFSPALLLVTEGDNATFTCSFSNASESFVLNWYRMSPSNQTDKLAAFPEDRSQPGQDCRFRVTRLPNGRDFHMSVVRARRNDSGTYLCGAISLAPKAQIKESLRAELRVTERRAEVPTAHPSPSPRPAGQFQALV
T7 sequence (Q15116 25-170): as the sequence (B0LAJ3 entry or part of it limits assumed) above, with E2D, A10P, L19V, A35T, R75Q, A144T counted along it
Chain of human PD-1 antigen protein of the affinity-maturation screen (Q15116 25-167 limits assumed): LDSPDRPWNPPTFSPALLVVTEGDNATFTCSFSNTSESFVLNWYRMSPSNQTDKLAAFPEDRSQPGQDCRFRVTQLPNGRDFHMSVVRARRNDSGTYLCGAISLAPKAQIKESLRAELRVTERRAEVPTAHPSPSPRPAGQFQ

The target of one assay is T1, mouse PD-1 on transfected 293F cells (mouse, UniProt Q02242 25-288).
T1 construct: whole, on cells; also called cell surface mouse PD-1
T1 sequence (looked up): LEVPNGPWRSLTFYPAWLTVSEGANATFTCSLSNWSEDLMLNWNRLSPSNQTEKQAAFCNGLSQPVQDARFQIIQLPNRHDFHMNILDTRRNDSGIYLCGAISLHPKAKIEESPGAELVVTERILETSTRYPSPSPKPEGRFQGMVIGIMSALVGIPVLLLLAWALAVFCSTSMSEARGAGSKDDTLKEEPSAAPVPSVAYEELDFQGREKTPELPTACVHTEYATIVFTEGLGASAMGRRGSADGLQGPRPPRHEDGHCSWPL
The experiment in a line: FACS, mouse PD-1 transfected 293F cells. (In general: In flow cytometry, cells or beads pass a laser one at a time.)
For the molecule B1, the half-maximal effective concentration (EC50) (as a rule, the concentration needed to bring the measured effect to its halfway point) was 12.9 nM.
Still for that read-out and setting: next, B2: 11.8 nM.
Same read-out and setting: next, B3: 14.8 nM.
On the same count and under the same terms, then B4, with 15.1 nM.

The target in another assay is T2, human PD-1 on transfected cells (human, UniProt Q15116 25-288).
T2 construct: also called CHO-S cells expressing human PD-1; human PD-1 transfected CHO-S cells
T2 sequence (Q15116 25-288 limits assumed): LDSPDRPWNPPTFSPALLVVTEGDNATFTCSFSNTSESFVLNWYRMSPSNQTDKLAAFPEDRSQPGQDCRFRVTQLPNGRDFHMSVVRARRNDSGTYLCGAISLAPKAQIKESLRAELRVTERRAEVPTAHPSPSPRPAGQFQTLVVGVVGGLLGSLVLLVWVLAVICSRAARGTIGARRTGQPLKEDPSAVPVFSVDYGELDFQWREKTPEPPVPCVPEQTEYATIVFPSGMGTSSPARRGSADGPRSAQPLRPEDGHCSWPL
The experiment in a line: FACS, human PD-1 transfected CHO-S cells.
Regarding B1, the EC50 was 2.2 nM.
The same measure, in the same setting: next, B2: 2.36 nM.
On the same count and under the same terms, next, B3: 2.78 nM; B4: 2.64 nM.

In the next assay the target is T3, human PD-1 (Sino Biological), coated on plates (human, UniProt Q15116 25-167).
T3 construct: whole entry named
T3 sequence (Q15116 25-167 limits assumed): as the sequence (Q15116 25-167 limits assumed) above
The experiment in a line: ELISA, plates coated with human PD-1 at 1 µg/ml. The procedure:
(§1) For ELISA, plates (Nunc) were coated with human, cynomolgus or mouse PD-1 (Sino Biological) at 1 μg/ml overnight at 4° C. After blocking and washing, antibodies were serially diluted in blocking buffer and added to the plates and incubated at room temperature for 1 h. The plates were then washed and subsequently incubated with secondary antibody goat anti human IgG HRP (Bethyl) for 1 h. After washing, TMB substrate was added and the reaction was stopped by 2 M HCl. The absorbance at 450 nm was read using a microplate reader (Molecular Device).
(An ELISA detects its analyte on a solid surface through an enzyme-linked reagent.)
As for B1, a half-maximal effect (EC50) was put at 0.18 nM.
Molecule B2 came in with a 50% effective concentration (EC50) of 0.12 nM.
Same read-out and setting: then B3, with 0.21 nM; and B4, with 0.2 nM.

In a further assay the target is T4, mouse PD-1 (Sino Biological), coated on plates (mouse, UniProt Q02242 25-167).
T4 sequence (looked up): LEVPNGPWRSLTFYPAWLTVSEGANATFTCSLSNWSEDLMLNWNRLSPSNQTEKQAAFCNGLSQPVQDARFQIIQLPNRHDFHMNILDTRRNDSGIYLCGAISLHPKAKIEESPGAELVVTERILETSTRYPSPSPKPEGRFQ
Put plainly: ELISA, plates coated with mouse PD-1 at 1 µg/ml. On the procedure: as §1
B1 had a concentration giving a half-maximal response (EC50) of 0.37 nM.
Consider B2, for which a half-maximal effect (EC50) was put at 0.41 nM.
As to B3, the EC50 amounted to 0.2 nM.
Molecule B4 returned an EC50 of 0.34 nM.

For another assay, the target named is cynomolgus PD-1 (Sino Biological), coated on plates (cynomolgus, UniProt B0LAJ3 25-170). The experiment in a line: ELISA, plates coated with cynomolgus PD-1 at 1 µg/ml. The procedure:
as §1
With B1, a half-maximal effect (EC50) was put at 0.25 nM.
In turn, B2 registered a 50% effective concentration (EC50) of 0.12 nM.
The same measure, in the same setting: then B3, with 0.36 nM; and B4, with 0.28 nM.

Another assay deals with T1, mouse PD-1 on transfected 293F cells. Put plainly: flow cytometry on 293F cells expressing mouse PD-1, quantitative beads. The procedure: (§2) Testing antibodies were 1:2 serially diluted in wash buffer (1×PBS/1% BSA) and incubated with cells at 4° C. for 1 h.
For the molecule B1, the Kd (usually the constant that tells how readily two partners part at equilibrium) turned out to be 29 nM.
On the same count and under the same terms, then B2, with 17.4 nM; and B3, with 35.1 nM; and B4, with 53.9 nM.

Another assay has as its target T2, human PD-1 on transfected cells. The experiment in a line: flow cytometry on CHO-S cells expressing human PD-1, quantitative beads. On the procedure:
as §2
For B1, binding was characterised by a dissociation constant (Kd) of 0.23 nM.
The molecule B2 showed a Kd of 0.264 nM.
Same read-out and setting: next, B3: 0.38 nM.
Molecule B4 returned an equilibrium dissociation constant (Kd) of 0.215 nM.

The next assay addresses T5, human CD28 on a constructed cell line (human, UniProt P10747 19-220).
T5 construct: whole, on cells
Put plainly: FACS, CD28.CHO-K1 cells, one antibody concentration (not given). On the procedure: (§3) Constructed cell lines that respectively express human PD-1, CD28, CTLA-4 or ICOS were transferred in to 96-well U-bottom plates (BD) at a density of 2×10⁵ cells/well. Testing antibodies were diluted in wash buffer (1×PBS/1% BSA) and incubated with cells at 4° C. for 1 h. After washing, the secondary antibody goat anti-human IgG Fc FITC (Jackson ImmunoResearch Lab) was added and incubated at 4° C. in the dark for 1 h. The cells were then washed once and resuspended in 1×PBS/1% BSA, and analyzed by flow cytometery (BD) and FlowJo software.
On to B1, for which the binding result is on record as “no binding”.
Still for that read-out and setting: then B2, with “no binding”.
For the molecule B3, the binding result is recorded as “no binding”.
In the case of B4, the binding result is “no binding”.

The target of the next assay is T6, human CTLA-4 on a constructed cell line (human, UniProt P16410 36-223).
T6 construct: whole, on cells
T6 sequence (P16410 36-223): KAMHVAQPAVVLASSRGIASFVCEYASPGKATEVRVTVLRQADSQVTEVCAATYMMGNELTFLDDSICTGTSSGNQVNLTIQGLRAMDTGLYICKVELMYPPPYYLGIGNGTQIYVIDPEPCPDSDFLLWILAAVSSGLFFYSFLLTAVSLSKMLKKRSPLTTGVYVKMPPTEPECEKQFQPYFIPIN
The experiment in a line: FACS, CTLA-4.293F cells, one antibody concentration (not given). The procedure:
as §3
Turning to B1, the binding result was “no binding”.
Still for that read-out and setting: then B2, with “no binding”.
On the same count and under the same terms, then B3, with “no binding”; and B4, with “no binding”.

The next assay has as its target T7, hPD-1.His (human, UniProt Q15116 25-170).
T7 construct: the SPR text says only human PD-1; also called human PD-1 (SPR analyte)
The experiment in a line: SPR (ProteOn XPR36), antibody captured on Protein A, PD-1.His as analyte, 1:1 fit. The text has this: (§4) Antibodies were characterized for affinity and binding kinetics to PD-1 by SPR assay using ProteOn XPR36 (Bio-Rad). Protein A protein (Sigma) was immobilized to a GLM sensor chip (Bio-Rad) through amine coupling. Purified antibodies were flowed over the sensor chip and captured by the Protein A. The chip was rotated […] and washed with running buffer (1×PBS/0.01% Tween20, Bio-Rad) until the baseline was stable. Seven concentrations of human PD-1 and running buffer were flowed through the sensor chip at a flow rate of 30 μL/min for an association phase of 180 s, followed by 300s dissociation. After regeneration, seven concentration of mouse PD-1 and running buffer were flowed through the sensor chip at a flow rate of 30 μL/min for an association phase of 180 s, followed by 300 s dissociation. The chip was regenerated with pH 1.5 H₃PO₄ after each run. The association and dissociation curve was fit by 1:1 Langmuir binding model using ProteOn software.
Regarding B1, binding was characterised by a dissociation constant (Kd) of 6.13 nM; the koff (as a rule, a measure of how fast the partners let go of each other) was 0.00366 s⁻¹; the kon (as a rule, a measure of how fast the partners come together) was found to be 597000 M⁻¹ s⁻¹.
Taken in the same sequence, the figures for B2 were 5.64 nM, 0.00414 s⁻¹ and 733000 M⁻¹ s⁻¹.
For the molecule B3, binding was characterised by a dissociation constant (Kd) of 7.09 nM, the koff is 0.0047 s⁻¹ and the kon came out at 663000 M⁻¹ s⁻¹.
Taken in the same sequence, the figures for B4 were 14.3 nM, 0.00918 s⁻¹ and 644000 M⁻¹ s⁻¹.

Another assay deals with T8, mPD-1.His (mouse, UniProt Q02242 25-167, limits assumed).
T8 construct: Soluble analyte, probably the extracellular domain; also called mouse PD-1 (SPR analyte)
T8 sequence (looked up): T4 sequence (looked up)
The assay is described as above.
Description: as §4
On to B1, for which the affinity, expressed as Kd, was 3.99 nM; the koff amounted to 0.00129 s⁻¹; the kon came out at 323000 M⁻¹ s⁻¹.
Taken in the same sequence, the figures for B2 were 6.92 nM, 0.00153 s⁻¹ and 221000 M⁻¹ s⁻¹.
For B3, in that order: 3.89 nM, 0.0013 s⁻¹ and 334000 M⁻¹ s⁻¹.
In turn, B4 had an equilibrium dissociation constant (Kd) of 9.37 nM, a koff of 0.003 s⁻¹ and a kon of 320000 M⁻¹ s⁻¹.

The next assay has as its target human PD-1 antigen protein of the affinity-maturation screen (human, UniProt Q15116 25-167, limits assumed, biotinylated). The experiment in a line: capture ELISA, second-round affinity-maturation screen (scFv format likely); unit not given.
Molecule B1 came in with a Bmax of 3.28.
B2 came in with a Bmax of 3.17.
Same read-out and setting: then B3, with 3.37; and B4, with 3.35.

The target in a further assay is T9, mouse PD-1 antigen protein of the affinity-maturation screen (mouse, UniProt Q02242 25-167, limits assumed, biotinylated).
T9 sequence (looked up): T4 sequence (looked up)
Described as above.
In the case of B1, the Bmax was determined as 0.47.
On the same count and under the same terms, next, B2: 0.416; B3: 0.479.
The same measure, in the same setting: next, B4: 0.221.

For a further assay, the target named is cynomolgus PD-1 antigen protein of the affinity-maturation screen (cynomolgus). The description is as above.
B1 registered a Bmax of 1.72.
Same read-out and setting: next, B2: 1.67; B3: 1.72; B4: 0.317.

For a further assay, the target named is T1, mouse PD-1 on transfected 293F cells. Put plainly: FACS blocking assay: mouse Fc fusion-mouse PD-L1 binding to mouse PD-1 transfected 293F cells.
On to B1, for which the IC50 (usually the midpoint of a concentration-inhibition curve) is 13 nM.
The same measure, in the same setting: next, B2: 16.7 nM; B3: 18.7 nM.
Still for that read-out and setting: next, B4: 20.4 nM.

The next assay deals with T2, human PD-1 on transfected cells. The experiment in a line: FACS blocking assay: mouse Fc fusion-human PD-L1 binding to human PD-1 transfected CHO-S cells.
The molecule B1 registered a half-inhibitory concentration (IC50) of 2.14 nM.
The same measure, in the same setting: then B2, with 2.2 nM; and B3, with 2.23 nM.
Still for that read-out and setting: next, B4: 2.22 nM.

Another assay has the same target. Put plainly: FACS competition on CHO-S cells expressing human PD-1 against biotinylated Keytruda at 1 µg/ml. On the procedure: (§5) The cells were washed and the second antibody Streptavidin-PE were added and incubated for 30 min at 4° C. The cells were then washed once and resuspended in 1×PBS/1% BSA, and analyzed by flow cytometery (BD).
Molecule B1 yielded a half-inhibitory concentration (IC50) of 9.52 nM.
On the same count and under the same terms, then B2, with 11.1 nM; and B3, with 17.2 nM; and B4, with 17.6 nM.

The target is the same in another assay. Put plainly: FACS competition on CHO-S cells expressing human PD-1 against biotinylated WBP305BMK1 at 1 µg/ml. The procedure:
as §5
In turn, B1 displayed an IC50 of 5.84 nM.
B2: the 50% inhibitory concentration (IC50) is 6.55 nM.
On the same count and under the same terms, then B3, with 8.93 nM; and B4, with 8.77 nM.

The values are drawn from patent publication US20230014722A1 (CSTONE PHARMACEUTICALS, published 2023).
